Measured values as given in the supplement of paper PMC9170038.

Tested on: MS2 coat protein
Experiment: apparent KD of MS2 coat protein; designed switch direction (-1 OFF switch, 1 ON switch): 1; higher = weaker reporter binding
Outline: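 SNAP-549-labelled MS2 coat protein was titrated, doubling from 0.7 or 1.5 nM to 3 µM, over designed RNA switches transcribed on Illumina chips by stalled E. coli RNA polymerase. Runs were done without input, with 200 uM small-molecule ligand, or with an oligonucleotide input. Apparent KD is the per-design median over clusters of curve-fitted normalised fluorescence.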

[1] = input ligand: microRNA oligo, concentration not stated
[2] = Eterna round: R95, input ligand: FMN 200 uM
[3] = Eterna round: R95, input ligand: microRNA oligo, concentration not stated
[4] = Eterna round: R95, input ligand: none

Row | Sequence | apparent KD of MS2 coat protein (input ligand: FMN 200 uM) [nM] | apparent KD of MS2 coat protein [1] [nM] | apparent KD of MS2 coat protein (input ligand: none) [nM] | apparent KD of MS2 coat protein [2] [nM] | apparent KD of MS2 coat protein [3] [nM] | apparent KD of MS2 coat protein [4] [nM]
1 | GGACGUCAUCUCACUGAUUAACAUGAGGAUCACCCAUGUUCACAGGAUAUGAGUCCGAUUAGGACUCAGAAGGGUGAGACGUCC [Fiskers NG3ss - 47] (Eterna round: R96, puzzle: Same State NG 3) | 19.3 | 16.8 | 19.3 |  |  | 
2 | GCUCGAUGAUAGGCCUACAUGAGGAUCACCCAUGUAACUGGGCAGGAUAUCUAAAUGCAGAAUGUAGAGAAGGGCCCGUCGAGC [SameState NG3 #53] (Eterna round: R96, puzzle: Same State NG 3) | 220 | 86.8 | 230 |  |  | 
3 | UGUUGUAUUACAGGAUAUCUAGUAUUGUUAUUUAGAGAAGGGUAUUCACAUGAGGAUCACCCAUGUAUAUACGAGGAAGUUGUG [JMF's solution 40] (Eterna round: R96, puzzle: Same State NG 1) |  | 28.8 |  |  |  | 
4 | GUUAGGAAUCUAGCAAACAUGAGGAUCACCCAUGUAAGUGGGAAGGAUAUGGUACAGAAACUGUACCAGAAGGUCUUAUUGUUU [Omei SS(NG) 3 AV8] (Eterna round: R96, puzzle: Same State NG 3) | 602 | 17.5 | 280 |  |  | 
5 | GCUCGAUGAGCGUUCUACAUGAGGAUCACCCAUGUUCGUGGGCAGGAUAUUUACAUGCAGAGUGUAGAGAAGGGCCCAUCGAGC [SameState NG3 #66] (Eterna round: R96, puzzle: Same State NG 3) | 205 | 117 | 838 |  |  | 
6 | AUUAUGUAUGCAGGAUAUGAUUAACAUGAGGAUCACCCAUGUGGUGUUGUGAGUAAGGAGAGUGAUCAGAAGGGCAUUUUUUUU [JMF's solution 64] (Eterna round: R96, puzzle: Same State NG 2) | 555 | 333 | 381 |  |  | 
7 | AGGCUCAGACUAGGAUAUGAUCAUGGCGCUUCGGCGCAUACAUGAGGAUCACCCAUGUAAAGUGAUCAGAAGGAGUCUGAGCCA [SSNG2/7-C1] (Eterna round: R96, puzzle: Same State NG 2) | 9.82 | 9.08 | 13.6 |  |  | 
8 | ACAUGAAAUACAGGAUAUUUUGUACCUACAUGUGACAUGAGGAUCACCCAUGUGGUAAGUAUAAGAGAGAAGGGUAAGAUAUGU [Equivalence 4 - Jieux - Same State NG 2] (Eterna round: R96, puzzle: Same State NG 2) | 50.1 | 43.8 | 66.4 |  |  | 
9 | ACGCGGGUAUCACAGGAUAUACUCAUAACUACAUGAGGAUCACCCAUGUGGCGGAAUUCCGGUGCGUAGAAGGGUGAUGGACCGC [Artece] (puzzle: Same State 2) |  |  |  | 19.3 | 28.5 | 26.9
10 | UGGCAACAUGAGGAUCACCCAUGUCAAACUAAUCGAGGAUAUGGGAACGAACAAGAGAAACUAGAAGGCGAACUUG [Altered State 1-11 - Jieux - Same State 1] (puzzle: Same State 1) |  |  |  | 122 | 137 | 118
11 | AGCUAUUAAUCAGGAUAUGGUCACAUGAGGAUCACCCAUGUGUAGAUGAUAAAAUGUGGUCAACACUAGAAGGGAUUGCUAACA [SameState NG2 #61] (Eterna round: R96, puzzle: Same State NG 2) | 26.8 | 25.1 | 37 |  |  | 
12 | AACAAUCUAUCUGAGGAUAUCAUGAAAAAAACAUGAGGAUCACCCAUGUGCAGGAAAACUGCAUAUGAGAAGGCAGAUAGAUUGA [salish99_SS2_r3_001] (Eterna round: R96, puzzle: Same State 2) |  | 490 |  |  |  | 
13 | GGUAGGUUACUACCAAACAUGAGGAUCACCCAUGUAAAUGGGAAGGAUAUGGUACCUAUUUGGUACCAGAAGGUCCAAUUAAUU [JL Fiskers NG3ss - 2 mod 2] (Eterna round: R96, puzzle: Same State NG 3) | 670 | 1720 | 4550 |  |  | 
14 | UGGUACAUGGGAGGAUAUCUCGUAGAGACAUGAGGAUCACCCAUGUAGAUGGCCGGUAACCGGGAAGAGAAGGCCCAUGUACCU [JL SSNG1 3.66] (Eterna round: R96, puzzle: Same State NG 2) | 203 | 56.1 | 82.6 |  |  | 
15 | UUCCCAUCGGGAGGAUAUGGAACCUUAUUGGUUCUAGAAGGUCCAACAUGAGGAUCACCCAUGUGGGAGUGGUCUAAUGACCAC [SS NG10LRO02] (Eterna round: R96, puzzle: Same State NG 1) | 117 | 141 | 159 |  |  | 
16 | AUUAAACAUGAGGAUCACCCAUGUCAACAAAGUCGAGGAUAUGGGCAAAUAAAAUAUGAACCAGAAGGCGAAUAAU [salish99_ss1_r3_064] (puzzle: Same State 1) |  |  |  | 32.1 | 220 | 412

Row | Sequence | apparent KD of MS2 coat protein (input ligand: FMN 200 uM) [nM] | apparent KD of MS2 coat protein [1] [nM] | apparent KD of MS2 coat protein (input ligand: none) [nM] | apparent KD of MS2 coat protein [2] [nM] | apparent KD of MS2 coat protein [3] [nM] | apparent KD of MS2 coat protein [4] [nM]
17 | GCUAGGAAAUAAGCCAACAUGAGGAUCACCCAUGUAUGUUGGUAGGAUAUCGUUUGCAAAGCAAACGAGAAGGGCUAACCUAGC [Mat - Same State NG 3 - JL Mod - D70] (Eterna round: R96, puzzle: Same State NG 3) | 72.2 | 70.6 | 85.9 |  |  | 
18 | GAAAGGCCUACAGGAUAUACCACAGUCUUGUCGGUAGAAGGGUGGGACAUGAGGAUCACCCAUGUACACUCCCAGAUGGGAGUG [Ergeesis] (Eterna round: R96, puzzle: Same State NG 1) | 767 | 135 | 476 |  |  | 
19 | UUAAUGAUGUAAGGAUAUACAUGAGGAUUUCUCGUAGAAGGUACAAGACAUGAGGAUCACCCAUGUAUCGCUCCGUAGAGCGUA [JL SSNG1 1.10] (Eterna round: R96, puzzle: Same State NG 1) | 652 | 101 | 287 |  |  | 
20 | AUAUGAGCUAUGGAGGAUAUCCAUAACAAGACAUGAGGAUCACCCAUGUAAUCAAAACAAUAAUGGGAGAAGGCCAUAGCUCAAU [SS 2 M47] (Eterna round: R96, puzzle: Same State 2) |  | 46.9 |  |  |  | 
21 | UCUUGGUUUUUGCUCGUUUUUUGUGUUGAACAUGAGGAUCACCCAUGUAUUGUACGAUCCAGUUAGAUGGUGGUUUG [JR_SHM208A_Sub044] (puzzle: Sensor for hsa-mir-208a) |  |  |  | 63.1 | 70.1 | 91.9
22 | GGUCGGACUCACAUGAGGAUCACCCAUGUUGCGGAAACGCCACAGGAUAUCUGUCCGAAAAGGUCAGAGAAGGGUGAACCGACC [Fiskers NG3ss - 63] (Eterna round: R96, puzzle: Same State NG 3) | 1460 | 35.8 | 214 |  |  | 
23 | UUGAUGAACUGAGGAUAUCGAGUCGUCUGAUUAUACAUGAGGAUCACCCAUGUGGGUUGUGGUAUCGAGAAGGCAGAUUACUUA [JR_SSNG2_Sub032] (Eterna round: R96, puzzle: Same State NG 2) | 82.8 | 117 | 260 |  |  | 
24 | ACAUGAAAUUCAGGAUAUUUUGUACCUACAUGUGACAUGAGGAUCACCCAUGUGGUAAGUAUAAGAGAGAAGGGAAAGAUAUGU [Equivalence 5 - Jieux - Same State NG 2] (Eterna round: R96, puzzle: Same State NG 2) | 29.1 | 29.9 | 38.5 |  |  | 
25 | AAAGGAUGAUUAUACAUGAGGAUCACCCAUGUAAGUUAUACUAAGGAUAUGUGACUUAAUAGUUUACAGAAGGUAGGUUCAUGA [AK SSNG3-V2-2] (Eterna round: R96, puzzle: Same State NG 3) | 43.8 | 69.3 | 59.9 |  |  | 
26 | UAAGUCAUGUAAGGAUAUGCAGCCGAAACGGCUGCAGAAGGUACUAUAAUUACAUGAGGAUCACCCAUGUUAUAAAAUUUAAAU [Mat - Same State NG 1 - JL mod - D78] (Eterna round: R96, puzzle: Same State NG 1) | 24.1 | 43.2 | 60.7 |  |  | 
27 | UCUUGGUUUUUGCUCGUUUUUUGUGUUGAACAUGAGGAUCACCCAUGUAUUGUACAGUCCAAUUUGAUAAUGGUCCG [JMF 54] (Eterna round: R96, puzzle: Sensor for hsa-mir-208a) | 50.2 | 28.1 | 55.1 |  |  | 
28 | AAUGUCUCACAUGAGGAUCACCCAUGUCUUUGGAUGAAGCUUUUUGCUCGUCUUCAUUUUGCUCGUCUUACCCAUGU [SBY_1] (puzzle: Sensor for hsa-mir-208a version 2) |  |  |  | 44.8 | 21 | 52.7
29 | ACGUGGCUGCCGCAGGAUAUACCCUGUUCCACAUGAGGAUCACCCAUGUUUACGAACUAUGAGAGGUAGAAGGGUGGAUGUCAUU [Beenvean] (puzzle: Same State 2) |  |  |  |  | 23.7 | 
30 | AUAUCCUUUUUAUACAUGAGGAUCACCCAUGUUUUUCUUACGUAGGAUAUCGUUGUUUUUUUUUACGAGAAGGACGUAGAAUGU [JR_SSND3_Sub063] (Eterna round: R96, puzzle: Same State NG 3) |  | 23.5 |  |  |  | 
31 | UUAAUUAAUUAAUUAUACAUGAGGAUCACCCAUGUAAGUGAUCAGGAUAUCAGCUCGAAUAGAGCUGAGAAGGGAUCCAUGUAA [SSNG3/14-A1] (Eterna round: R96, puzzle: Same State NG 3) |  | 72.7 |  |  |  | 
